Measured values: paper PMC9098882

Assays:
[1] = target: CRL5^Ozz, reconstituted five-component complex (Ozz–EloBC + Cul5–Rbx1) (human) (UniProt Q9BR09); assay: SEC; purified Ozz–EloBC and Cul5–Rbx1 mixed 1:1; Superose 6 10/300GL, 50 mM Tris pH 7.6, 150 mM NaCl, 0.3 ml/min; fractions on SDS gels stained with SYPRO Ruby
[2] = target: CRL5^Ozz, reconstituted five-component complex (Ozz–EloBC + Cul5–Rbx1) (human) (UniProt Q9BR09); assay: AUC; sedimentation velocity, 50,000 rpm, 20 °C, interference optics; 10 mM sodium phosphate, 1.8 mM potassium phosphate pH 7.2, 137 mM NaCl, 0.27 mM KCl; c(s) and two-dimensional c(s,f/f0) analysis of the same data; co-purified subcomplexes alone (Ozz–EloBC 0.35 or 1.00 mg/ml, Cul5–Rbx1 0.21 mg/ml) and their 1:1 mixture (0.75 mg/ml)
[3] = target: CRL5^Ozz, reconstituted five-component complex (Ozz–EloBC + Cul5–Rbx1) (human) (UniProt Q9BR09); assay: co-sedimentation; 15–45% glycerol gradient ultracentrifugation with micro-fractionation; 20 mM Tris–HCl pH 7.6, 150 mM NaCl; 55,000 r.p.m., 8 h (also 12 h), 4 °C; fractions on SDS gels stained with SYPRO Ruby, densitometry
[4] = target: Ozz–EloBC subcomplex (human) (UniProt Q9BR09); assay: AUC; sedimentation velocity, 50,000 rpm, 20 °C, interference optics; 10 mM sodium phosphate, 1.8 mM potassium phosphate pH 7.2, 137 mM NaCl, 0.27 mM KCl; c(s) and two-dimensional c(s,f/f0) analysis of the same data; co-purified subcomplexes alone (Ozz–EloBC 0.35 or 1.00 mg/ml, Cul5–Rbx1 0.21 mg/ml) and their 1:1 mixture (0.75 mg/ml)
[5] = target: Ozz–EloBC subcomplex (human) (UniProt Q9BR09); assay: AUC; sedimentation velocity, isotherm of signal-weighted-average s (3 to 7 S) of Ozz–EloBC at 1.8 to 13.3 μM; reversible monomer–dimer self-association model (dimer to monomers of the 1:1:1 complex), SEDPHAT; same buffer, 20 °C

Chain of Cul5–Rbx1 subcomplex (Q93034 whole entry): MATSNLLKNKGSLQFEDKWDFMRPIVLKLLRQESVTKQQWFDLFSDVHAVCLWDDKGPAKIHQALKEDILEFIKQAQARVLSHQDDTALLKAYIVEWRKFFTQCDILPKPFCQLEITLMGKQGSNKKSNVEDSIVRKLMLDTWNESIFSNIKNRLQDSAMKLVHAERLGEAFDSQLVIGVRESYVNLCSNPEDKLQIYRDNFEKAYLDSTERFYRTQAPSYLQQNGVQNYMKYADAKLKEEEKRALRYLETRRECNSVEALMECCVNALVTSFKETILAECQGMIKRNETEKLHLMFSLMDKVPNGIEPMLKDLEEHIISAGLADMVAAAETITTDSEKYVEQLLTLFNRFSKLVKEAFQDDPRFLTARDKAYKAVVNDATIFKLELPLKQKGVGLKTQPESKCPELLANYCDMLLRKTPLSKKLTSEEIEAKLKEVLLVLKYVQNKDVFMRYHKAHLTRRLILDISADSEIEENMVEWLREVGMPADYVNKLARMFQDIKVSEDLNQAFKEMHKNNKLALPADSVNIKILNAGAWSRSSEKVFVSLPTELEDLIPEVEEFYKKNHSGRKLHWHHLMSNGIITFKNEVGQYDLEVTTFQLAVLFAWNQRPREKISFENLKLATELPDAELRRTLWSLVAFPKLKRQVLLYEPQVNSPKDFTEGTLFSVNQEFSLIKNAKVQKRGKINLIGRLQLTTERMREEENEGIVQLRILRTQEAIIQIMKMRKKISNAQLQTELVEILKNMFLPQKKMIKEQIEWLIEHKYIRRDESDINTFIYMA
Chain of Cul5–Rbx1 subcomplex (P62877 whole entry): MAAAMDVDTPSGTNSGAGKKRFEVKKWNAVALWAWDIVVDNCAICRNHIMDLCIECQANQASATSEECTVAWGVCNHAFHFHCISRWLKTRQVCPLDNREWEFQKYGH

Substance	stoichiometry N [1]	percent of total protein in the dimer peak, c(s) [2] [%]	percent of total protein in the dimer peak, c(s,f/f0) [2] [%]	stoichiometry N [2]	stoichiometry N [3]	percent of total protein in the peak of the 1:1:1:1:1 complex, c(s) [4] [%]	percent of total protein in the peak of the 1:1:1:1:1 complex, c(s,f/f0) [4] [%]	stoichiometry N [4]	Kd [5] [µM]	percent of total protein in the dimer peak, c(s) [4] [%]	percent of total protein in the dimer peak, c(s,f/f0) [4] [%]
CRL5^Ozz, reconstituted five-component complex (Ozz–EloBC + Cul5–Rbx1) (from UniProt Q9BR09 1-285; Q15370 1-118; Q15369 1-112; Q93034 1-780; P62877 1-108)	2	5	8	2	2						
Cul5–Rbx1 subcomplex (from UniProt Q93034 1-780; P62877 1-108)						55	48	1			
Ozz–EloBC subcomplex (from UniProt Q9BR09 1-285; Q15370 1-118; Q15369 1-112)								2	0.7	53	52
